The assay concerns the target GST-Rev3 (S. cerevisiae) (UniProt P14284). The experiment in a line: affinity co-purification of the polymerase from yeast.
Sequence of UniProt P14284 (P14284 whole entry): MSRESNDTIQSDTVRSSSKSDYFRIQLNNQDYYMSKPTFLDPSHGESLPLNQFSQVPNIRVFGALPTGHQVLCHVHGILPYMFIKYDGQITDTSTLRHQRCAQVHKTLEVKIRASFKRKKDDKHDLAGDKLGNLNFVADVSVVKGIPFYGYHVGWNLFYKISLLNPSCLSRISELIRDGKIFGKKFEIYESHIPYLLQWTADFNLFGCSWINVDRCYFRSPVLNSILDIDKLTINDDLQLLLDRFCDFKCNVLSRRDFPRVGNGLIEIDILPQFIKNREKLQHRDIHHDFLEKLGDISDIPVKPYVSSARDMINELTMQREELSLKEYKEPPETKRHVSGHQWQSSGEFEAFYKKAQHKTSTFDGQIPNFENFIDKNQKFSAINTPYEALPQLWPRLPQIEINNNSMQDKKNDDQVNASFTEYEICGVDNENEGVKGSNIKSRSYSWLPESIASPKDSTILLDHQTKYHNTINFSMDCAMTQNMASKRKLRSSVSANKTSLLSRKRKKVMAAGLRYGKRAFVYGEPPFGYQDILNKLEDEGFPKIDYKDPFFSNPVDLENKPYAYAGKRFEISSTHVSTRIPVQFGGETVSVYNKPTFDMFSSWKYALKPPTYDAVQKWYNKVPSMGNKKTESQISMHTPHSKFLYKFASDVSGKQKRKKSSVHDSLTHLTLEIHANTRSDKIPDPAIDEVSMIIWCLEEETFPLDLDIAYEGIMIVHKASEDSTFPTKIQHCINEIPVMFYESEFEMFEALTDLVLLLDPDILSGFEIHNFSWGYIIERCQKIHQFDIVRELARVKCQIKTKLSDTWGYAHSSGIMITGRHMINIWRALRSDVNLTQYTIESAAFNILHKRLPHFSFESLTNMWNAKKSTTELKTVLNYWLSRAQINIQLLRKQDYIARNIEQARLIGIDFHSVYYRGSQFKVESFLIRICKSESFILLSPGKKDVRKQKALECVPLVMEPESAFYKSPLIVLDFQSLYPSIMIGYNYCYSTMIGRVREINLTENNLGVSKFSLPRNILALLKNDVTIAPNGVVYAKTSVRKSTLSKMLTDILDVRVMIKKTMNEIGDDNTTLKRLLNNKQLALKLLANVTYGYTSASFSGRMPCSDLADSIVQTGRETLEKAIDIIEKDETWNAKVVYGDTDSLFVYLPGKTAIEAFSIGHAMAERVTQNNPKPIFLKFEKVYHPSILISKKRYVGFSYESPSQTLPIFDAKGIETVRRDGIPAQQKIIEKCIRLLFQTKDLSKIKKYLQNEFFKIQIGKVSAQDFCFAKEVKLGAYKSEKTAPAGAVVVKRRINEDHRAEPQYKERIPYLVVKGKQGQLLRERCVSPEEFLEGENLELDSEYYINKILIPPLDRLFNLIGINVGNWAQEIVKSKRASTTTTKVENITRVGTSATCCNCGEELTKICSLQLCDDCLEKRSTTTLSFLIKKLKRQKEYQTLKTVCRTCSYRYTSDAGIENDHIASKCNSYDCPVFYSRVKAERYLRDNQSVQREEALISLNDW

“Pol32 with an N-terminal His7 tag (from UniProt P47110 1-350) (natural protein)” displayed a stoichiometry of the complex after Ni-chelate chromatography (percent) of 100%.

(Values after publication PMC3526297.)
